Experimental data as given in PMC12394075, “Domain coupling in activation of a family C GPCR” (Nature Chemical Biology, 2024).

Target: the molecule itself
Experiment: SEC; Superdex 200 10/300 increase; 100 mM NaCl, 20 mM HEPES, pH 7.5

B1: isolated mGluR2 LBD (residues 22–502 with a Cys234Ser mutation) (domain or fragment, UniProt P31421 22-502, looked up)
chain: AKKVLTLEGDLVLGGLFPVHQKGGPAEECGPVNEHRGIQRLEAMLFALDRINRDPHLLPGVRLGAHILDSCSKDTHALEQALDFVRASLSRGADGSRHICPDGSYATHSDAPTAVTGVIGGSYSDVSIQVANLLRLFQIPQISYASTSAKLSDKSRYDYFARTVPPDFFQAKAMAEILRFFNWTYVSTVASEGDYGETGIEAFELEARARNISVATSEKVGRAMSRAAFEGVVRALLQKPSARVAVLFTRSEDARELLAATQRLNASFTWVASDGWGALESVVAGSERAAEGAITIELASYPISDFASYFQSLDPWNNSRNPWFREFWEERFHCSFRQRDCAAHSLRAVPFEQESKIMFVVNAVYAMAHALHNMHRALCPNTTHLCDAMRPVNGRRLYKDFVLNVKFDAPFRPADTDDEVRFDRFGDGIGRYNIFTYLRAGSGRYRYQKVGYWAEGLTLDTSFIPWASPSAGPLPASRCSE
notes: Rat is surmised because the same peptides are compared with the full-length rat construct; the simulations used human mGluR2; also called LBD-alone construct; LBD-only construct; source: Expi293 GNTI- cells, secreted into media, purified (anti-FLAG M2 resin, SEC)
stoichiometry N: 2
